Measurements reported in patent US20140296500, “Methods and Compositions of Nucleic Acid Ligands for Detection of Clinical Analytes Related to Human Health” (OTC BIOTECHNOLOGIES, LLC, published 2014).

T1: CTx 8-AA peptide (EKAHDGGR) (Homo sapiens, UniProt P02452 P02452:1207-1214)
T1 chain: EKAHDGGR


Tests used:
[1] = target: T2, Recombinant human growth hormone (r-hGH) (Homo sapiens, UniProt P01241 P01241:27-217); assay: ELONA; binds r-hGH better than natural hGH; conditions: tags: >95% pure research grade; label: 5'-biotin
Method: FIGS. 16A-16D show four more examples of aptamers (from the SEQ ID NOs 325-526) that bind recombinant human growth hormone (“r-hGH”) better than the natural form of hGH or somatotropin to help discriminate the artificial form in potential drug or doping tests for atheletes and growth-challenged children. The ELISA-like assays were conducted with the named aptamers (SEQ ID NOs 348, 377, 379 and 388) instead of antibodies in each case and absorbances were red at 405 nm with an automated microplate reader after a 15 minute development time in the presence of ABTS substrate as is standard in the diagnostics industry.

[2] = target: T3, CTx peptide (C-telopeptide of human type I bone collagen, 26 AA …) (Homo sapiens, UniProt P02452 P02452:1193-1218); assay: FRET beacon; almost as good as 15-base version, slightly higher background; conditions: label: 5'-TYE665, 3'-Iowa Black RQ
Method: Cuvettes are gently mixed for 15 to 20 minutes at RT prior to reading their fluorescence in the homogeneous beacon or competitive-displacement FRET assay formats using a spectrofluorometer having gratings to vary the excitation wavelength and emission scanning ability or a stationary, handheld or otherwise portable fluorometer having a more restricted or fixed excitation and emission optical filter set with a range of wavelengths for excitation and emission.
FIGS. 3A-3F show how each of the aptamer beacons derived and defined from FIG. 2 behaved as a function of decreasing CTx peptide concentration (serial two-fold dilutions beginning with 100 micrograms per ml and ending with zero CTx peptide) in 1× binding buffer (1×BB; 0.5 M NaCl, 10 mM Tris-HCl, pH 7.5-7.6, 1 mM MgCl₂). In the figures “h” means hour or O'clock so that 2 h refers to the 2 O'clock loop from FIG. 2, while F means forward-primed and R means reverse-primed by reference to FIG. 2 as well. […] The CTx 2R-2h loop was optimal for FRET-based detection because it gives the greatest spread or separation for various two-fold serial dilutions of the 26-AA CTx peptide beginning at 100 μg/ml. The CTx 2F-10 h loop was also noteworthy, but could not discriminate many of the different CTx concentrations. […]

[3] = target: T2, Recombinant human growth hormone (r-hGH); assay: ELONA; binds r-hGH better than natural hGH; conditions: tags: >95% pure research grade; label: 5'-biotin; remark: listed apart in the source
Method: FIGS. 15A-15D show four examples of aptamers from the SEQ ID NOs 325-526 that bind recombinant human growth hormone (r-hGH; >95% pure research grade) better than the natural form of hGH or somatotropin in ELISA-like assays to help discriminate the artificial form of hGH in potential drug or doping tests for athletes, or to monitor serum levels of exogendus doses of r-hGH administered to children with growth deficits. The ELISA-like assays were conducted with the named aptamers (SEQ ID NOs 336, 338, 343 and 345) instead of antibodies in each case and absorbances were red at 405 nm with an automated microplate reader after a 15 minute development time in the presence of ABTS substrate as is standard in the diagnostics industry.

[4] = target: T1, CTx 8-AA peptide (EKAHDGGR); assay: FRET beacon specificity; no response with 8-AA segment; conditions: label: 5'-TYE665, 3'-Iowa Black RQ
[5] = target: Bovine serum albumin (BSA) (Bos taurus, UniProt P02769 P02769:25-607); assay: FRET beacon; unexpected cross-reactivity with BSA; conditions: label: 5'-TYE665, 3'-Iowa Black RQ
[6] = target: T3, CTx peptide (C-telopeptide of human …); assay: FRET beacon; LOD 1 ng/ml; 0.5 M NaCl, 10 mM Tris-HCl, 1 mM MgCl2, pH 7.5-7.6, RT; conditions: label: 5'-TYE665, 3'-Iowa Black RQ
Method: Generally, the aptamer beacons or competitive FRET-aptamer complexes are then diluted to a final concentration of 1-5 μg/ml in 1×BB and equally dispensed to polystyrene or methacrylate cuvettes in which 1 ml of unlabeled target at various concentrations in 1×BB, PBS or diluted blood, plasma, serum, saliva, aspirate or urine has been added already. Cuvettes are gently mixed for 15 to 20 minutes at RT prior to reading their fluorescence in the homogeneous beacon or competitive-displacement FRET assay formats using a spectrofluorometer having gratings to vary the excitation wavelength and emission scanning ability or a stationary, handheld or otherwise portable fluorometer having a more restricted or fixed excitation and emission optical filter set with a range of wavelengths for excitation and emission.
FIGS. 3A-3F show how each of the aptamer beacons derived and defined from FIG. 2 behaved as a function of decreasing CTx peptide concentration (serial two-fold dilutions beginning with 100 micrograms per ml and ending with zero CTx peptide) in 1× binding buffer (1×BB; 0.5 M NaCl, 10 mM Tris-HCl, pH 7.5-7.6, 1 mM MgCl₂). In the figures “h” means hour or O'clock so that 2 h refers to the 2 O'clock loop from FIG. 2, while F means forward-primed and R means reverse-primed by reference to FIG. 2 as well. […]

T2 sequence (P01241 27-217, one chain of several): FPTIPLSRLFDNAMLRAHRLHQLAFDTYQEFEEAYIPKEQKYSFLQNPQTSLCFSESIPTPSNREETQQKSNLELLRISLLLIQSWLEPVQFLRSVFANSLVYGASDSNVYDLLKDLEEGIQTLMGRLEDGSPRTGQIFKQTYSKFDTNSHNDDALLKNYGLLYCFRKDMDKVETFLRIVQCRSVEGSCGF
T3 sequence (P02452 1193-1218, one chain of several): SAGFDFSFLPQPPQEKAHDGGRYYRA
Chain of Bovine serum albumin (BSA) (P02769 25-607, one chain of several): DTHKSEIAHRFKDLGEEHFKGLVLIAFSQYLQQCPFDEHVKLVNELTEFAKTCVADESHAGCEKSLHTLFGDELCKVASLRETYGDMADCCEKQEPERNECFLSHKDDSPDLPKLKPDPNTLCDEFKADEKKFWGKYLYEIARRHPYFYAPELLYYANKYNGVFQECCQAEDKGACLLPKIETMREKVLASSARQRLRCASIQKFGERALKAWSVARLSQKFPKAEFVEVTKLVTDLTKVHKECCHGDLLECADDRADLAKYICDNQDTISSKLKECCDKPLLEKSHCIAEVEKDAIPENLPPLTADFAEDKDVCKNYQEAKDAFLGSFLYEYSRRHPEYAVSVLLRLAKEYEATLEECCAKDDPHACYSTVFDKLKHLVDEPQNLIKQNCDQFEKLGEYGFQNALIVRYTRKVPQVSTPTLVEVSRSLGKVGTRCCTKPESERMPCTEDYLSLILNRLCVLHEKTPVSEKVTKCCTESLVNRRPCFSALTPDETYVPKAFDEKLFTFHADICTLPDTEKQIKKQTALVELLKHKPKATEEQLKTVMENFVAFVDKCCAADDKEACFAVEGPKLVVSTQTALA

| Binder | binding result [1] | binding result [3] | also measured |
| --- | --- | --- | --- |
| hGH aptamer SEQ 379 (ssDNA) DNA: ATACGGGAGCCAACACCACCTGAGCGCCGGCAGCACTCACTATTTGTCCCCGCAAGAGCAGGTGTGACGGAT | binds | – | – |
| GTGGTGTTGGCTC (ssDNA) [CTx 2R-2h 13-base beacon] | – | – | binding result [2]: binds |
| hGH aptamer SEQ 348 (ssDNA) DNA: ATCCGTCACACCTGCTCTAGGATTTTTGTTATGTCGGCCACGATGGGGACCCCGTGGTGTTGGCTCCCGTAT | binds | – | – |
| hGH aptamer SEQ 388 (ssDNA) DNA: ATCCGTCACACCTGCTCTAAAACATGGGCCCAATTAGGCGTGATCCAACCCGTCTGGTGTTGGCTCCCGTAT | binds | – | – |
| hGH aptamer SEQ 338 (ssDNA) DNA: ATCCGTCACACCTGCTCTTGGGTGAATCAATTGTTCGTACTCCACGTGATTCTGTGGTGTTGGCTCCCGTAT | – | binds | – |
| hGH aptamer SEQ 377 (ssDNA) DNA: ATACGGGAGCCAACACCACATGACGGGTGACTAAAAGACGAAATCTCCCAATTAAGAGCAGGTGTGACGGAT | binds | – | – |
| GGTGGTGTTGGCTCC (ssDNA) [CTx 2R-2h 15-base beacon] | – | – | binding result [4]: no binding; binding result [5]: binds; binding result [6]: binds |
| hGH aptamer SEQ 343 (ssDNA) DNA: ATACGGGAGCCAACACCATAAGCAGAGAACTACAAGACGATCCCATATTCCAAAGAGCAGGTGTGACGGAT | – | binds | – |
| hGH aptamer SEQ 345 (ssDNA) DNA: ATACGGGAGCCAACACCAGGTTGGCGTCAAAAGAAATAAGGGATATACATTAGAGAGCAGGTGTGACGGAT | – | binds | – |
| hGH aptamer SEQ 336 (ssDNA) DNA: ATCCGTCACACCTGCTCTGGGGTGTATCCTTTTATGGATCTGCGAGAATAAGTCTGGTGTTGGCTCCCGTAT | – | binds | – |
